The target of experiment [1] is CD22 on the cell membrane of CD22-positive cell lines (Raji, REH, CA46) (UniProt P20273). As to the kind of experiment: FACS on REH cells; ambiguous fit, Top printed as (very wide).
Experiment [2] has the same target. Description: FACS on CA46 cells; ambiguous fit, Top printed as (very wide).
Experiment [3] has the same target. As to the kind of experiment: FACS on Raji cells.
The target in experiment [4] is Biotinylated Human Siglec-2/CD22 Protein, Fc, Avitag (ACROBiosystems, SI2-H82F8) (human) (UniProt P20273). Description: ELISA, plate coated with CD22-Fc antigen; fit of a non-binding control (R2 0.1733), not meaningful.
For experiment [5], the target named is T1, Biotinylated Human Siglec-2/CD22 Protein, Fc, Avitag (ACROBiosystems, SI2-H82F8) (human, UniProt P20273 20-687, biotinylated (Avitag)).
T1 construct: Bought reagent; also called CD22 antigen; CD22-Fc-biotinylated antigen; not shown: Fc tag of the bought protein; Avitag
Description: ELISA, plate coated with CD22-Fc antigen, anti-human Fd-HRP. On the procedure:
ELISA plates were coated with 200 ng/mL CD22 antigen (Biotinylated Human Siglec-2/CD22 Protein, Fc, Avitag™, ACROBiosystems (ARCO)) at 100 μl per well, at 4° C. overnight. Next day, the plates were washed with PBST, then blocked by the added blocking buffer (PBST+3% milk) at 37° C. for 1-2 hours, and then washed again with PBST.
After incubation, the plates were washed with PBST. 100 μl of 1:10000 diluted secondary antibody (Mouse anti-human IgG Fd secondary antibody, HRP; REF: SA5-10190, Invitrogen, USA) was added to each well of the ELISA plates which were then incubated at 37° C. for 1 hour. Thereafter, the plates were washed with PBST.
100 μl of TMB solution (TMB Single-Component Substrate solution, Cat #PR1200, Beijing Solarbio Science & Technology Co., Ltd.) was added to each well of the plates which were then incubated at room temperature for 15 minutes. Then 50 μl of stop buffer (ELISA stop buffer (10×), Cat #C1058, Beijing Solarbio Science & Technology Co., Ltd.) was added thereto, and the plates were shaken. Absorbance values at 450 nm were detected.

Experiment [6] has as its target T1, Biotinylated Human Siglec-2/CD22 …. Description: SPR (Biacore 8K), CD22-Fc-biotin on SA chip, antibody as analyte, 1:1 binding model. The procedure:
Following reagents and materials were mainly used: [0066] Antigen to be immobilized: CD22-Fc-biotinylated antigen: ACROBiosystems (ARCO)) SI2-H82F8; [0067] Antibodies to be tested: Anti-CD22 mAbs; [0068] Chip SA; [0069] Immobilization buffer: (1) 1 M NaCl/50 mM NaOH; [0070] (2) 1 M NaCl/50 mM NaOH/50% isopropanol; [0071] Running buffer: 1×HBS-EP buffer; [0072] Regeneration buffer: Glycine, pH 1.5.
Experimental steps were as follows: [0074] 1) A sensor chip SA was taken and its surface was cleaned with ultrapure water; and after dried under nitrogen, was inserted into the slot. The immobilization buffers (1) and (2) were added to the columns A1 and A2 in a 96 well plate, and 3.85 nM CD22-Fc-biotinylated antigen were added at 200 μL per well into corresponding wells in column A3, respectively. The program was set to immobilize the antigen, and the immobilization was stopped when delta RU of about 70 RU was achieved. [0075] 2) Program “binding test” was set, including association time of 250 s and dissociation time of 600 s, and a test was performed using HA22 mAb, a dissociation degree of 4-5% was shown. [0076] 3) The HA22 mAb was diluted to 1000 nM and subsequently to 100 nM, and further 2-fold diluted starting from 100 nM for 8 times, at a final volume of about 250 μL per well. The program was set up to detect the binding capacity of that antibody No. 1 to the antigen, with association time of 250 s and dissociation time of 600 s. […] [0077] 4) All the antibodies, i.e., mAb-1 to mAb-6, were diluted to 1000 nM and subsequently to 100 nM, and further 2-fold diluted starting from 100 nM for 8 times, at a final volume of about 250 μL per well. The same program as that in step 3 was set up to detect affinity in batches. Results were analyzed using Biacore 8K evaluation.

In experiment [7] the target is T2, CD22 on the cell membrane of CD22-positive cell lines (Raji, REH, CA46) (UniProt P20273 20-847, limits assumed).
T2 construct: whole, on cells; Raji and CA46: relatively high expression of CD22; REH: relatively medium expression; also called CD22 on cell membrane
As to the kind of experiment: FACS on CA46 cells. On the procedure:
(§1) Raji cells (having a relatively high expression of CD22), CA46 cells (having a relatively high expression of CD22), and REH cells (having a relatively medium expression of CD22) were selected, and the cell binding ability of the antibodies was evaluated by curves of mean fluorescence intensity versus concentration obtained through FACS.

Experiment [8] concerns the target T2, CD22 on the cell membrane of …. Description: FACS on Raji cells. The procedure:
as §1

Experiment [9] has the same target. Description: FACS on REH cells. On the procedure:
as §1

The target is the same in experiment [10]. Description: FACS on CA46 cells; ambiguous fit, Top printed as (very wide). The procedure: as §1

As to Isotype control (antibody), the 50% effective concentration (EC50) amounted to 8250 µg/mL in experiment [1], 4590 µg/mL in [2], 32.6 µg/mL in experiment [3] and 0.000154 µg/mL in experiment [4].

B1: HA22 mAb (antibody, human IgG1, kappa, V domains shown)
VH: EVQLVESGGGLVKPGGSLKLSCAASGFAFSIYDMSWVRQTPEKCLEWVAYISSGGGTTYYPDTVKGRFTISRDNAKNTLYLQMSSLKSEDTAMYYCARHSGYGTHWGVLFAYWGQGTLVTVSA
VL: DIQMTQTTSSLSASLGDRVTISCRASQDISNYLNWYQQKPDGTVKLLIYYTSILHSGVPSRFSGSGSGTDYSLTISNLEQEDFATYFCQQGNTLPWTFGCGTKLEIKR
notes: also called positive antibody HA22 mAb
Consider B1, for which the EC50 in [5] worked out at 0.0203 µg/mL; in experiment [7], 0.221 µg/mL; in [8] it was 0.152 µg/mL; in experiment [9], 0.172 µg/mL. Also, in experiment [6], binding was characterised by a dissociation constant (Kd) of 0.242 nM. The koff in experiment [6] was found to be 8.93e-05 s⁻¹. The molecule further yielded a kon in [6] of 370000 M⁻¹ s⁻¹.

B2: mAb-1 (antibody, human IgG1, kappa, V domains shown)
VH: EVQLVESGGGLVKPGGSLRLSCAASGFAFSIYDMSWVRQTPEKCLEWVAYISSGGGTTYYPDSVKGRFTISRENAKNSLYLQMNSLKSEDTAMYYCARHSGYGTHWGVLFAYWGQGTMVTVSS
VL: DIQMTQTTSSLSASLGDRVTISCRASQDISNYLNWYQQKPDGTVKLLIYYTSILHSGVPSRFSGSGSGTDYSLTISNLEQEDFATYFCQQGNTLPWTFGCGTKLEIKR
notes: Reconstructed IgG1/kappa antibody, humanized heavy chain with HA22 light chain; also called V2 HC + HA22 LC
For B2, the EC50 in experiment [5] came to 0.0154 µg/mL; in experiment [7] it was 0.521 µg/mL; in [8], 0.152 µg/mL; in [9], 0.812 µg/mL. Further, binding in [6] was put at a Kd of 0.604 nM. In [6], this molecule displayed a dissociation rate constant (koff) of 0.000262 s⁻¹. The kon in experiment [6] stood at 434000 M⁻¹ s⁻¹.

B3: mAb-3 (antibody, human IgG1, kappa, V domains shown)
VH: EVQLVESGGGLVKPGGSLRLSCAASGFAFSIYDMSWVRQAPGKCLEWVAYISSGGGTTYYPDSVKGRFTISRENAKNSLYLQMNSLKSEDTAMYYCARHSGYGTHWGVLFAYWGQGTMVTVSS
VL: DIQMTQSTSTLSASVGDRVTITCRASQDISNYLNWYQQRPDGSVKLLIYYTSILHSGVPSRFSGSGSGTDYTLTISSLQDEDFATYFCQQGNTLPWTFGCGTKVEIKR
notes: Humanized IgG1/kappa antibody; also called V1 HC + V2 LC
As to B3, the concentration for a half-maximal effect (EC50) in [5] is 0.0139 µg/mL. Moreover, in [6], the Kd was found to be 0.713 nM, the koff was found to be 0.000404 s⁻¹ and the kon worked out at 567000 M⁻¹ s⁻¹. In [7], this molecule registered an EC50 of 1.61 µg/mL.

B4: mAb-4 (antibody, human IgG1, kappa, V domains shown)
VH: EVQLVESGGGLVKPGGSLRLSCAASGFAFSIYDMSWVRQAPGKCLEWVAYISSGGGTTYYPDSVKGRFTISRENAKNSLYLQMNSLKSEDTAMYYCARHSGYGTHWGVLFAYWGQGTMVTVSS
VL: DIQMTQSPSTLSASVGDRVTITCRASQDISNYLNWFQQRPGQSPRLLIYYTSILHSGVPSRFSGSGSGTDYTLTISSLQPEDFATYYCQQGNTLPWTFGCGTKVEIKR
notes: Humanized IgG1/kappa antibody; also called V1 HC + V4 LC
For the molecule B4, the EC50 in experiment [5] was determined as 0.0139 µg/mL. In experiment [6], this molecule displayed a Kd of 0.145 nM, an off-rate constant (koff) of 9.91e-05 s⁻¹ and an association rate constant (kon) of 685000 M⁻¹ s⁻¹. In [7], this molecule had an EC50 of 0.152 µg/mL. In addition, a half-maximal response in [8] (EC50) required 0.206 µg/mL.

B5: mAb-5 (antibody, human IgG1, kappa, V domains shown)
VH: EVQLVESGGGLVKPGGSLRLSCAASGFAFSIYDMSWIRQAPGKCLEWVAYISSGGGTTYYPGSVKGRFTISRENAKNSLYLQMNSLRSEDTAVYYCARHSGYGTHWGVLFAYWGQGTMVTVSS
VL: DIQMTQSPSTLSASVGDRVTITCRASQDISNYLNWFQQRPGQSPRLLIYYTSILHSGVPSRFSGSGSGTDYTLTISSLQPEDFATYYCQQGNTLPWTFGCGTKVEIKR
notes: Humanized IgG1/kappa antibody; also called V5 HC + V4 LC
Molecule B5 registered an EC50 in [5] of 0.0163 µg/mL. In experiment [6], this molecule had a Kd of 0.382 nM, a koff of 0.000411 s⁻¹ and an on-rate constant (kon) of 1.08e+06 M⁻¹ s⁻¹. Moreover, the EC50 in experiment [10] was roughly 20200 µg/mL.

B6: mAb-2 (antibody, human IgG1, kappa, V domains shown)
VH: EVQLVESGGGLVKPGGSLRLSCAASGFAFSIYDMSWVRQTPEKCLEWVAYISSGGGTTYYPDSVKGRFTISRENAKNSLYLQMNSLKSEDTAMYYCARHSGYGTHWGVLFAYWGQGTMVTVSS
VL: DIQMTQSTSTLSASVGDRVTITCRASQDISNYLNWYQQRPDGSVKLLIYYTSILHSGVPSRFSGSGSGTDYTLTISSLQDEDFATYFCQQGNTLPWTFGCGTKVEIKR
notes: Humanized IgG1/kappa antibody; also called V2 HC + V2 LC
Regarding B6, the figures for the EC50 in [5], in [7] and in experiment [8] were 0.00906 µg/mL, 0.23 µg/mL and 0.276 µg/mL, respectively. Further, binding in experiment [6] was put at a Kd of 0.47 nM. This molecule also returned a koff in [6] of 0.000177 s⁻¹. The same molecule returned a kon in [6] of 376000 M⁻¹ s⁻¹.

B7: mAb-6 (antibody, human IgG1, kappa, V domains shown)
VH: EVQLVESGGGLVKPGGSLRLSCAASGFAFSIYDMSWIRQAPGKCLEWVAYISSGGGTTYYPGSVKGRFTISRENAKNSLYLQMNSLRAGDTAVYYCARHSGYGTHWGVLFAYWGQGTMVTVSS
VL: DIQMTQSPSTLSASVGDRVTITCRASQDISNYLNWFQQRPGQSPRLLIYYTSILHSGVPSRFSGSGSGTDYTLTISSLQPEDFATYYCQQGNTLPWTFGCGTKVEIKR
notes: Humanized IgG1/kappa antibody; also called V4 HC + V4 LC
On to B7, for which the EC50 in experiment [5] came to 0.0104 µg/mL. Further, in experiment [6], the Kd turned out to be 0.315 nM, the koff was 0.00022 s⁻¹ and the kon is 699000 M⁻¹ s⁻¹. The EC50 in [7] was 2.75 µg/mL.
